These results are taken from patent US20260248947A1, “Methods of Treating Cancer Using Anti-HER2 Antibody-Drug Conjugates and HER2 Kinase Inhibitors” (Seagen Inc., priority 2023, published 2026).

Test [1] has as its system HER2 cell surface protein levels. Briefly: qFACS analysis of cell-surface HER2 levels upon tucatinib treatment. The class given is cell-based, human. The settings on record: 100 nM tucatinib. On the procedure: HER2 cell surface levels were determined by qFACS analysis. Briefly, cells were stained with an anti-HER2 antibody (R&D Systems, Inc.; #MAB1129) and Zombie Aqua (BioLegend, Inc.; #423101) for dead cell exclusion. Cells were fixed, and HER2 receptor copy number per cell was quantified using a QIFIKIT (Agilent Dako) per the manufacturer's protocol.
(§1) The internalization experiments were conducted by detecting an antibody-bound pH sensitive probe using automated time-lapse microscopy. Briefly, breast cancer cell lines SK-BR-3, BT-474, HCC-202, and EFM-192C and gastric cancer cell lines NCI-N87 and OE19 were seeded in 96-well flat clear-bottom black tissue culture-treated microplates (Coming, cat #3603). Cells were plated at 1.5×10^4-2.5×10^4 cells/200 μL/well in growth medium and allowed to adhere overnight at 37° C. Disitamab and isotype control antibody (human IgG) were labeled with IncuCyte Fabfluor-pH Red Antibody Labeling Reagent (Essen Bioscience, cat #4722) according to the manufacturer's protocol. Volumes of the test antibodies, Fabfluor reagent and medium required were calculated at 2× the final assay concentration, and the Fabfluor reagent was added at a molar ratio of 1:3 to the antibody. Antibody and Fabfluor were mixed gently and incubated at 37° C. for 15 minutes. Media containing Fabluor-labeled disitamab ([…] final concentration) with or without tucatinib (100 nM final concentration) was added to cells. The plates were arranged on microplate trays in the IncuCyte SX3 system (Essen Bioscience), and scans were acquired using the Standard protocol. Phase data and red channel data (acquisition time set to 400 ms) were collected, with 4 images per well every 30 minutes for the first 6 hours and every 2 hours after that for up to 72.5 hours with the objective set at 10×. Quantification of fluorescence signal intensity was performed using the IncuCyte software analysis tool. Cell surface HER2 density was quantified using qFACS analysis as described supra.

Test [2] has as its system HER2+ locally advanced or metastatic breast cancer (LA/mBC). The settings on record: subjects that progressed following taxane plus trastuzumab treatment; cited from earlier work.
In test [3] the target is T1, HER2 (Homo sapiens, UniProt P04626). The test is described as follows: Internalization assay of Fabfluor-labeled disitamab with or without tucatinib (IncuCyte). Also noted: endogenous in cells; host or cells: SK-BR-3, BT-474, HCC-202, EFM-192C, NCI-N87, OE19. The settings on record: 100 nM tucatinib. The class given is cell-based. On the procedure: as §1
The analysis was refined and tuned per cell line utilizing phase area confluence and manual image selection for preview and training of the algorithm. Upon completion of the analysis, red object integrated intensity (RCU×μm^2/image) data were graphed using GraphPad Prism. The experiment was performed in duplicate (technical replicates) for two biological replicates.

For test [4], the target named is T1, HER2. Briefly: Internalization assay of Fabfluor-labeled disitamab compared to trastuzumab (IncuCyte). The class given is cell-based. Also noted: endogenous in cells; host or cells: SK-BR-3, BT-474, HCC-202, EFM-192C, BT-483, CAMA-1, NCI-N87, OE19, RERF-GC-1B. On the procedure:
The internalization experiments were conducted by detecting an antibody-bound pH sensitive probe using automated time-lapse microscopy. Briefly, breast cancer cell lines SK-BR-3, BT-474, HCC-202, EFM-192C, BT-483, and CAMA-1 and gastric cancer cell lines NCI-N87, OE19, and RERF-GC-1B were seeded in 96-well flat clear-bottom black tissue culture-treated microplates (Corning, cat #3603). Cells were plated at 1.5×10^4-2.5×10^4 cells/200 μL/well in growth medium and allowed to adhere overnight at 37° C. Disitamab, trastuzumab, and isotype control antibody (human IgG) were labeled with IncuCyte Fabfluor-pH Red Antibody Labeling Reagent (Essen Bioscience, cat #4722) according to the manufacturer's protocol. Volumes of the test antibodies, Fabfluor reagent and medium required were calculated at 2× the final assay concentration, and the Fabfluor reagent was added at a molar ratio of 1:3 to the antibody. Fabfluor dye fluoresces only upon exposure to an acidified compartment, namely endocytic vesicles and lysosomes, signifying internalization and intracellular processing of the ADC. Antibody and Fabfluor were mixed gently and incubated at 37° C. for 15 minutes. Media containing Fabfluor-labeled disitamab or trastuzumab ([…] final concentration) was added to cells. The plates were arranged on microplate trays in the IncuCyte SX3 system (Essen Bioscience), and scans were acquired using the Standard protocol. Phase data and red channel data (acquisition time set to 400 ms) were collected, with 4 images per well every 30 minutes for the first 6 hours and every 2 hours after that for up to 40 hours with the objective set at 10×. Quantification of fluorescence signal intensity was performed using the IncuCyte software analysis tool.

Consider `Cc1cc(Nc2ncnc3ccc(NC4=NC(C)(C)CO4)cc23)ccc1Oc1ccn2ncnc2c1` [tucatinib, Tucatinib], for which the “cell-surface HER2 levels over time compared with untreated cells” value in test [1] (BT-474), in test [1] (BT-483), in test [1] (CAMA-1), in test [1] (EFM-192C), in test [1] (HCC-202) and in test [1] (NCI-N87) was “increase” throughout. Besides, the “cell-surface HER2 levels over time compared with untreated cells” value in test [1] (OE19), in test [1] (RERF-GC-1B) and in test [1] (SK-BR-3) was “increase” in each case.
trastuzumab emtansine [T-DM1]: in test [2], the “overall response (either complete or partial response)” value is recorded as 34.2% and the “subjects alive without disease progression at 12 months” value was 34.1%.
Regarding disitamab, the “disitamab internalization in the presence of tucatinib compared to disitamab alone” value in test [3] (EFM-192C), in test [3] (NCI-N87), in test [3] (OE19) and in test [3] (SK-BR-3) was “increased” each time. Moreover, the “disitamab internalization as compared to trastuzumab” value in test [4] (BT-474), in test [4] (BT-483), in test [4] (CAMA-1), in test [4] (EFM-192C), in test [4] (HCC-202) and in test [4] (NCI-N87) was “Increased” throughout. For the same compound, the “disitamab internalization as compared to trastuzumab” value in test [4] (OE19), in test [4] (RERF-GC-1B) and in test [4] (SK-BR-3) was “Increased” in each case.
